Sequences and labels used below:
B2: Vrp1p-His (full-length S. pombe verprolin Vrp1p with a COOH-terminal His-tag) (natural protein)
chain: MAPAPPPPPPAPAPAAAAPAPPLMTGDRSALLNSIQKGKKLKKATTNDRSAPVVGGGVVGERKSNTPKSFAAPPVPTGAPSLPTSSNNTQQAEERPSMPALGGLFAGGMPKLRHIGKSSASAAPPSAPAPPTPQSELRPPTSAPPRPSIPPPSPASAPPIPSKAPPIPSSLPPPAQPAAPVKSPPSAPSLPSAVPPMPPKVPPPPLSQAPVANTSSRPSSFAPPAGHAPNVTSESPKFPNRGPSIPSASVPPVPPSSYVLQQRPNRVDDHGRFHFKDDSYLPIPHPFLGVPKVYRGGSGTTVPLNLSSF

Experiment [1] has as its target B2. Briefly: pull-down.
The next experiment addresses actin monomers (UniProt P68135 1-377). Briefly: pull-down.

Several values for one entry are separate records, joined by “and”; a condition that tells them apart may be missing. Equal entries are not always repeated.

B1: GST-Myo1p-23A (GST fused to the TH2-SH3-CA domains of the S. pombe myosin-I Myo1p tail) (domain or fragment, UniProt Q9Y7Z8 965-1217, looked up)
chain: TSKSKPFPRLATGGSTAAARGPRPVVQNKPAATKPVSMPAAKSKPAPMANPVSTAQQTQNRPPAPAMQARPNTTQAAAPVTSTTTTIKQATTVSASKPAPSTVTSAASSPSNISKPSAPVANNVSKPSAVPPPPPPPPAEVEKKDLYLALYDFAGRSPNEMTIKKDEIIEIVQKEPSGWWLALKNGAEGWVPATYVTEYKGSTPQTTASSTNVAAQANNNASPAEVNNLAGSLADALRMRASAVRGSDEEEDW
Turning to B1, the Kd – broadly, the equilibrium constant for the complex coming apart – in experiment [1] is 4600 nM and 5600 nM. As for B2, in the experiment with actin monomers, the dissociation constant (Kd) is 1000 nM and 900 nM and 800 nM.

The record behind these values is publication PMC2171502 (The Journal of Cell Biology, 2005).
